According to US12698494:

Biological target: T1, FRETS-VWF73 fluorogenic substrate, P04275
T1 chain: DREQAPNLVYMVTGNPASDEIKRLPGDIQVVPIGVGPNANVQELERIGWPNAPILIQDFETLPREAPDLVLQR

B1: Full-length ADAMTS13 variant NGLY6 (636RLPRL640 to 636RNASL640) (protein)
chain: AAGGILHLELLVAVGPDVFQAHQEDTERYVLTNLNIGAELLRDPSLGAQFRVHLVKMVILTEPEGAPNITANLTSSLLSVCGWSQTINPEDDTDPGHADLVLYITRFDLELPDGNRQVRGVTQLGGACSPTWSCLITEDTGFDLGVTIAHEIGHSFGLEHDGAPGSGCGPSGHVMASDGAAPRAGLAWSPCSRRQLLSLLSAGRARCVWDPPRPQPGSAGHPPDAQPGLYYSANEQCRVAFGPKAVACTFAREHLDMCQALSCHTDPLDQSSCSRLLVPLLDGTECGVEKWCSKGRCRSLVELTPIAAVHGRWSSWGPRSPCSRSCGGGVVTRRRQCNNPRPAFGGRACVGADLQAEMCNTQACEKTQLEFMSQQCARTDGQPLRSSPGGASFYHWGAAVPHSQGDALCRHMCRAIGESFIMKRGDSFLDGTRCMPSGPREDGTLSLCVSGSCRTFGCDGRMDSQQVWDRCQVCGGDNSTCSPRKGSFTAGRAREYVTFLTVTPNLTSVYIANHRPLFTHLAVRIGGRYVVAGKMSISPNTTYPSLLEDGRVEYRVALTEDRNASLEEIRIWGPLQEDADIQVYRRYGEEYGNLTRPDITFTYFQPKPRQAWVWAAVRGPCSVSCGAGLRWVNYSCLDQARKELVETVQCQGSQQPPAWPEACVLEPCPPYWAVGDFGPCSASCGGGLRERPVRCVEAQGSLLKTLPPARCRAGAQQPAVALETCNPQPCPARWEVSEPSSCTSAGGAGLALENETCVPGADGLEAPVTEGPGSVDEKLPAPEPCVGMSCPPGWGHLDATSAGEKAPSPWGSIRTGAQAAHVWTPAAGSCSVSCGRGLMELRFLCMDSALRVPVQEELCGLASKPGSRREVCQAVPCPARWQYKLAACSVSCGRGVVRRILYCARAHGEDDGEEILLDTQCQGLPRPEPQEACSLEPCPPRWKVMSLGPCSASCGLGTARRSVACVQLDQGQDVEVDEAACAALVRPEASVPCLIADCTYRWHVGTWMECSVSCGDGIQRRRDTCLGPQAQAPVPADFCQHLPKPVTVRGCWAGPCVGQGTPSLVPHEEAAAPGRTTATPAGASLEWSQARGLLFSPAPQPRRLLPGPQENSVQSSACGRQHLEPTGTIDMRGPGQADCAVAIGRPLGEVVTLRVLESSLNCSAGDMLLLWGRLTWRKMCRKLLDMTFSSKTNTLVVRQRCGRPGGGVLLRYGSQLAPETFYRECDMQLFGPWGEIVSPSLSPATSNAGGCRLFINVAPHARIAIHALATNMGAGTEGANASYILIRDTHSLRTTAFHGQQVLYWESESSQAEMEFSEGFLKAQASLRGQYWTLQSWVPEMQDPQSWKGKEGTHHHHHH
Question: Which “FRETS-VWF73 activity relative to wild-type ADAMTS13” value does the source give for B1 here?
Answer: The value was “NGLY6 showed a reduced activity when compared to wild-type ADAMTS13”.
